Test results from patent US20110020369A1.
One block for each binder: values may come before it.

Experiments:
hTSLPR-Ig fusion (human) [1] = target: hTSLPR-Ig fusion (human) (UniProt Q9HC73); assay: SPR BIAcore T100, huTSLPR-hIg amine-coupled on CM5, antibody as analyte, bivalent analyte model, n = 2
hTSLPR-ECTO-His (human) = assay: ELISA, plate coated with TSLPR 50 ng/well, HRP goat anti-mouse detection
hTSLPR-Ig fusion (human) [2] = target: hTSLPR-Ig fusion (human) (UniProt Q9HC73); assay: SPR BIAcore T100, huTSLPR-hIg amine-coupled on CM5, antibody as analyte, bivalent analyte model, n = 6

Chain of hTSLPR-Ig fusion (human) (Q9HC73 23-231): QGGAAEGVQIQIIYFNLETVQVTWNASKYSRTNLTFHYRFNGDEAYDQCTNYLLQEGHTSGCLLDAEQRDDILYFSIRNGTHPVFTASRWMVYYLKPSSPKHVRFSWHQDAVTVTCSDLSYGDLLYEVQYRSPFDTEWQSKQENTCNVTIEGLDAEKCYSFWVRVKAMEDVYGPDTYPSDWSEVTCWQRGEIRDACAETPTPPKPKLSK

Kd (hTSLPR-Ig fusion (human) [1]): 0.102 nM
koff (hTSLPR-Ig fusion (human) [1]): 0.000136 s⁻¹
kon (hTSLPR-Ig fusion (human) [1]): 1.34e+06 M⁻¹ s⁻¹
B1: chimeric anti-human TSLPR 13H5 antibody (antibody, V domains shown, not shown: a dimerising Fc or GST)
VH: QVLLKQSGPSLVQPSQSLSITCTVSGFSLSRYGVHWVRQSPGKGLEWLGVIWRSGSTDYNAAFMSRLSITQDNSKSQVFFNMNSLQSDDSAIYYCAKKAFYVMDYWGQGTSVTVSS
VL: DIQMTQTTSSLSASLGDRVTISCRASQDISIYLNWYQQKPDGTVKLLIYYTSRLHSGVPSRFSGSGSGTNFSLTITNLEEEDIATYFCQQGNTLPWTFGGGTKLEIKR

EC50 (hTSLPR-ECTO-His (human)): 0.0106 mg/L
Kd (hTSLPR-Ig fusion (human) [2]): 0.037 nM
koff (hTSLPR-Ig fusion (human) [2]): 7.8e-05 s⁻¹
kon (hTSLPR-Ig fusion (human) [2]): 2.12e+06 M⁻¹ s⁻¹
B2: mouse anti human TSLPR antibody 13H5 (antibody, mouse IgG1, V domains shown)
VH: B1 VH
VL: B1 VL

Kd (hTSLPR-Ig fusion (human) [1]): 0.079 nM
koff (hTSLPR-Ig fusion (human) [1]): 0.00012 s⁻¹
kon (hTSLPR-Ig fusion (human) [1]): 1.52e+06 M⁻¹ s⁻¹
EC50 (hTSLPR-ECTO-His (human)): 0.0162 mg/L
B3: mouse anti-human TSLPR antibody 70E8 (antibody, mouse IgG1, V domains shown)
VH: DVQLQESGPDLVKPSQSLSLTCTVTNYSITSGYSWPWIRQFPGNKLEWLGYIHSSGRTNYNPSLKSRISITRDTSKNQFFLQLNSVTPEDTATYYCARSQLGLVFFAYWGQGTLVTVSA
VL: DIVMTQSQKFMSTSVGDRVSVTCKASQSVGANVAWYQQIPGHSPKVLIYSASYRFSGVPDRFTGSGSGTDFTLTISNVQSEDLAEYFCQQYNSYPYTFGGGTKLEIRR

Kd (hTSLPR-Ig fusion (human) [1]): 0.008 nM
koff (hTSLPR-Ig fusion (human) [1]): 1.5e-05 s⁻¹
kon (hTSLPR-Ig fusion (human) [1]): 1.81e+06 M⁻¹ s⁻¹
B4: rat anti-human TSLPR antibody 18B3 (antibody, V domains shown)
VH: EVQLVESGGGLVQPGRSLRLSCVASGFTFNNYWMTWVRQAPGKGLEWVASITDTSGRTYYPDSVKGRFTISRDHAKSTLYLQMNSLRPEDTATYYCTKTLGGIPRDWGQGVMVTVSS
VL: NIQLTQSPSLLSASVGDRVTLSCKGSQNINNYLAWYQQKLGEAPKLLIFKTNILQTGIPLRFSGSGSGTDYTLTISSLHCEDLATYYCYQFNNGFTFGPGTKLELKR
